Laboratory results taken from patent publication US20210122826A1 (MIT, published 2021).
Positions count from the first letter of the chain named.

T1: Human Clec10A (human, UniProt Q8IUN9 1-316)
T1 construct: also called hClec10A
T1 sequence: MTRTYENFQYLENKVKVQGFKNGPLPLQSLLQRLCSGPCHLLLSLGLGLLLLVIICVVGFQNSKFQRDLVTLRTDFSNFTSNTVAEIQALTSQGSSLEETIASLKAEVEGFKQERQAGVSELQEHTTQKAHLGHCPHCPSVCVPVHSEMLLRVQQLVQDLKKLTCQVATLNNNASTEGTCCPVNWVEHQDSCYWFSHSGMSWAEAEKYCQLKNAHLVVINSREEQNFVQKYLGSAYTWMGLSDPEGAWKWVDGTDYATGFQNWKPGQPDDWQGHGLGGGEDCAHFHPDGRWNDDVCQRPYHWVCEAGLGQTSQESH

T2: Human KLRF1 (human, UniProt Q9NZS2 1-231)
T2 construct: also called hKLRF1
T2 sequence: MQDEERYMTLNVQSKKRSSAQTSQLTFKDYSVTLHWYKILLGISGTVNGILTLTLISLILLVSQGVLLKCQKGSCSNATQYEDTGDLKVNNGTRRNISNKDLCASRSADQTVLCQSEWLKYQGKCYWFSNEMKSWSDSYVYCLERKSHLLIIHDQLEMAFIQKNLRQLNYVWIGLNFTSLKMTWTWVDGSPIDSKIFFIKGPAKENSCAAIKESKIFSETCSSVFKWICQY

T3: Human CD209 (human, UniProt Q9NNX6 1-404)
T3 construct: also called hCD209
T3 sequence: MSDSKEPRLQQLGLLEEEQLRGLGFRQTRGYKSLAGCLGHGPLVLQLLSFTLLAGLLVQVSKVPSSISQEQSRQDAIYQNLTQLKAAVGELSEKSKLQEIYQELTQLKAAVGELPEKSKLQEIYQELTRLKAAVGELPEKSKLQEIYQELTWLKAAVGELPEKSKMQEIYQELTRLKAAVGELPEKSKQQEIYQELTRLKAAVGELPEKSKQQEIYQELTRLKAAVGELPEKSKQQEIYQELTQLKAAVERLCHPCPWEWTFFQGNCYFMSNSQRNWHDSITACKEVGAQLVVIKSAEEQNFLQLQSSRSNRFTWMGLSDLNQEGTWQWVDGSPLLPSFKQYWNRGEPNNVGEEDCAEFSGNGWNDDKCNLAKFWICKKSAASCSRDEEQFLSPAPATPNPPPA

T4: Human KLRF2 (human, UniProt D3W0D1 1-207)
T4 construct: also called hKLRF2
T4 sequence: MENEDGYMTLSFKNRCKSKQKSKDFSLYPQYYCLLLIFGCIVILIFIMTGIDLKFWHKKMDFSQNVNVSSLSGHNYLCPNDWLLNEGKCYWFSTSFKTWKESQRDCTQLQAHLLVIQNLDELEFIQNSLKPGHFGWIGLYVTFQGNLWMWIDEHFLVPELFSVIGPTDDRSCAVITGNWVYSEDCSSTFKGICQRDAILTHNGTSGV

T5: Human Clec12B (human, UniProt Q2HXU8 1-276)
T5 construct: also called hClec12B
T5 sequence: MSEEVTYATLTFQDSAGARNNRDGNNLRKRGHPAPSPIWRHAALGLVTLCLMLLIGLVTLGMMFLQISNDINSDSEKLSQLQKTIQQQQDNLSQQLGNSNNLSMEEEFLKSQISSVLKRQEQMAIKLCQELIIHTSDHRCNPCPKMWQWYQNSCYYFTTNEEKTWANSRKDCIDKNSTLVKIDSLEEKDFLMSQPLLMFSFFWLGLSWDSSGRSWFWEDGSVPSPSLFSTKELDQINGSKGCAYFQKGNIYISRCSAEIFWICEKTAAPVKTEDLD

T6: Human CD94 (human, UniProt Q13241 1-179)
T6 construct: also called hCD94
T6 sequence: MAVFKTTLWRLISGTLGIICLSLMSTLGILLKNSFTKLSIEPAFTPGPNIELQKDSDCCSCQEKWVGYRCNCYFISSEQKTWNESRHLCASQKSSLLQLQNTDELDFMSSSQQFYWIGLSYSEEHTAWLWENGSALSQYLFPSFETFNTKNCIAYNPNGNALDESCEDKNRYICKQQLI

T7: Human KLRG1 (human, UniProt Q96E93 1-195)
T7 construct: also called hKLRG1
T7 sequence: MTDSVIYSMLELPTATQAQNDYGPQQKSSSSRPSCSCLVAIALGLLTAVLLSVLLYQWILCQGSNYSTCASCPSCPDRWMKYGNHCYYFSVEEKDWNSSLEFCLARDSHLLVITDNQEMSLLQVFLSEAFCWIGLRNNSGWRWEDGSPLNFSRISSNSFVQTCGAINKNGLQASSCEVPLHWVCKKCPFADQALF

T8: Human Clec7A (human, UniProt Q9BXN2 1-247)
T8 construct: also called hClec7A
T8 sequence: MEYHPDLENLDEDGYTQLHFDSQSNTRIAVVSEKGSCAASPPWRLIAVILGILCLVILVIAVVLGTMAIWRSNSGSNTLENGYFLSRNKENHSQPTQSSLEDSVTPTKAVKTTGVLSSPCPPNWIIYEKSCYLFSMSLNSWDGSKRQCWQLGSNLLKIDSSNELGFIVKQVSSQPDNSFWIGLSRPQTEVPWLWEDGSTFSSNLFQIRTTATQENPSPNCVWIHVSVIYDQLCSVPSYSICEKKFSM

T9: Human Clec4E (human, UniProt Q9ULY5 1-219)
T9 construct: also called hClec4E
T9 sequence: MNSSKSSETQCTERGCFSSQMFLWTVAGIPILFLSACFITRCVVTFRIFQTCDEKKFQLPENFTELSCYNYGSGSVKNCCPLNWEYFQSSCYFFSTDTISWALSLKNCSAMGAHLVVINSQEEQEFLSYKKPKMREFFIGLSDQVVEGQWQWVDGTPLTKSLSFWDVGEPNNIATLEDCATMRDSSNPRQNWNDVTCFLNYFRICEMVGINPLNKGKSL

T10: Human Clec5A (human, UniProt Q9NY25 1-188)
T10 construct: also called hClec5A
T10 sequence: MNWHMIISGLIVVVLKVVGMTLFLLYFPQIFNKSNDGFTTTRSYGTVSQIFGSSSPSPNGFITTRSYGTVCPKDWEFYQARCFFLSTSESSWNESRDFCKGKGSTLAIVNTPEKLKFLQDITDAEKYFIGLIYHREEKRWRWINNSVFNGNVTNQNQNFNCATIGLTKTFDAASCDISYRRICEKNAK

B1: KW1.2.1 (antibody, V domains shown)
VH: EVQLVESGGGLVQPGGSLRLSCAASGSTFSSYAMSWVRQAPGKGLEWVSTISGSGGSTYYADSVKGRFTISRDNSRNTLYLQMNSLRAEDTAVYYCARGGLIPSGFDYWGQGTLVTVSS
VL: DIQMTQSPSSPSASVGDRVTITCRASQSISSYLNWYQQKPGKAPKLLIYAASSLLSGVPSRFSGSGSGTDFTLTISSLQPEDFATYYCQQTYSTPLTFGQGTKVEIK
B2: KW1.3.12 (antibody, human IgG1, V domains shown)
VH: B1 VH with S27F
VL: B1 VL with P11L, T94A
B3: KW7.2.2 (antibody, V domains shown)
VH: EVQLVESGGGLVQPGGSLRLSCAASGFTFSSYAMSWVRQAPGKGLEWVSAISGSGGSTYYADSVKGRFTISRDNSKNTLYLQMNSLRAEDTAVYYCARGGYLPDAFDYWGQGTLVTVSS
VL: B1 VL with P11L, K45R, L46F, L55Q
B4: KW7.3.7 (antibody, V domains shown)
VH: B1 VH with S27F, T50A, I51T, V64A, R76K, L101Y, I102L, S104D, G105A, Q111R
VL: B1 VL with P11L, R24W, K39E, L55Q
B5: KM12.2.3 (antibody, human IgG1, V domains shown)
VH: EVQLVESGGGLVQPGGSLRLSCAASGFTFSSYAMSWIRQAPGKGLEWVSAISGSGGSIYYADSVKGRFTISRDNSKNTLYLQMNSLRAEDTAVYYCARGYSDSYFYGPYYTFDYWGQGTLVTVSS
VL: B1 VL with P11L, S28G, L55Q, P59S, T91S, S93N
B6: KM12.4.7 (antibody, V domains shown)
VH: B5 VH with S21P, N84D
VL: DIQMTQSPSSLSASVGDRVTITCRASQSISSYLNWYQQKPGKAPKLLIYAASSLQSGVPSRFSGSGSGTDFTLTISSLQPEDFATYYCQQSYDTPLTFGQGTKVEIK

Molecular target: T11, Human Clec9A (human, UniProt Q6UXN8 1-241)
T11 construct: also called hClec9A
T11 sequence (Q6UXN8 whole entry): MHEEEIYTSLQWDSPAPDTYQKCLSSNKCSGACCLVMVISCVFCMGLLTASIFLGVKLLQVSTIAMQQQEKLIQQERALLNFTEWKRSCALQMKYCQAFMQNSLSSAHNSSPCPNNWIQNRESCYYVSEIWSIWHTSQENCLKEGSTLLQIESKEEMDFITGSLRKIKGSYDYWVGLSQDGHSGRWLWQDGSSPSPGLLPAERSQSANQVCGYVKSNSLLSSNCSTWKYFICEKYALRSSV
Test: flow, Jurkat

Binder	binding result
B1	no binding (tested: 100 nM)
B2	no binding (tested: 100 nM)
B3	no binding (tested: 100 nM)
B4	no binding (tested: 100 nM)
B5	no binding (tested: 100 nM)
B6	no binding (tested: 100 nM)

Molecular target: T1, Human Clec10A
Test: flow, Jurkat

Binder	binding result
B1	no binding (tested: 100 nM)
B2	no binding (tested: 100 nM)
B3	no binding (tested: 100 nM)
B4	no binding (tested: 100 nM)
B5	no binding (tested: 100 nM)
B6	no binding (tested: 100 nM)

Molecular target: T2, Human KLRF1
Test: flow, Jurkat

Binder	binding result
B1	no binding (tested: 100 nM)
B2	no binding (tested: 100 nM)
B3	no binding (tested: 100 nM)
B4	no binding (tested: 100 nM)
B5	no binding (tested: 100 nM)
B6	no binding (tested: 100 nM)

Molecular target: T3, Human CD209
Test: flow, Jurkat

Binder	binding result
B1	no binding (tested: 100 nM)
B2	no binding (tested: 100 nM)
B3	no binding (tested: 100 nM)
B4	no binding (tested: 100 nM)
B5	no binding (tested: 100 nM)
B6	no binding (tested: 100 nM)

Molecular target: T4, Human KLRF2
Test: flow, Jurkat

Binder	binding result
B1	no binding (tested: 100 nM)
B2	no binding (tested: 100 nM)
B3	no binding (tested: 100 nM)
B4	no binding (tested: 100 nM)
B5	no binding (tested: 100 nM)
B6	no binding (tested: 100 nM)

Molecular target: T5, Human Clec12B
Test: flow, Jurkat

Binder	binding result
B1	no binding (tested: 100 nM)
B2	no binding (tested: 100 nM)
B3	no binding (tested: 100 nM)
B4	no binding (tested: 100 nM)
B5	no binding (tested: 100 nM)
B6	no binding (tested: 100 nM)

Molecular target: T6, Human CD94
Test: flow, Jurkat

Binder	binding result
B1	no binding (tested: 100 nM)
B2	no binding (tested: 100 nM)
B3	no binding (tested: 100 nM)
B4	no binding (tested: 100 nM)
B5	no binding (tested: 100 nM)
B6	no binding (tested: 100 nM)

Molecular target: T7, Human KLRG1
Test: flow, Jurkat

Binder	binding result
B1	no binding (tested: 100 nM)
B2	no binding (tested: 100 nM)
B3	no binding (tested: 100 nM)
B4	no binding (tested: 100 nM)
B5	no binding (tested: 100 nM)
B6	no binding (tested: 100 nM)

Molecular target: T8, Human Clec7A
Test: flow, Jurkat

Binder	binding result
B1	no binding (tested: 100 nM)
B2	no binding (tested: 100 nM)
B3	no binding (tested: 100 nM)
B4	no binding (tested: 100 nM)
B5	no binding (tested: 100 nM)
B6	no binding (tested: 100 nM)

Molecular target: T9, Human Clec4E
Test: flow, Jurkat

Binder	binding result
B1	no binding (tested: 100 nM)
B2	no binding (tested: 100 nM)
B3	no binding (tested: 100 nM)
B4	no binding (tested: 100 nM)
B5	no binding (tested: 100 nM)
B6	no binding (tested: 100 nM)

Molecular target: T12, Human OLR1 (human, UniProt P78380 1-273)
T12 construct: also called hOLR1
Test: flow, Jurkat

Binder	binding result
B1	no binding (tested: 100 nM)
B2	no binding (tested: 100 nM)
B3	no binding (tested: 100 nM)
B4	no binding (tested: 100 nM)
B5	no binding (tested: 100 nM)
B6	no binding (tested: 100 nM)

Molecular target: T10, Human Clec5A
Test: flow, Jurkat

Binder	binding result
B1	no binding (tested: 100 nM)
B2	no binding (tested: 100 nM)
B3	no binding (tested: 100 nM)
B4	no binding (tested: 100 nM)
B5	no binding (tested: 100 nM)
B6	no binding (tested: 100 nM)
